Source: US20250064890A1, “PROTEIN COMPOSITIONS FOR THE TREATMENT OF INFLAMMATORY DISEASES” (Unichem Laboratories Limited, priority 2021, published 2025)
Like-named read-outs stand apart in the source and are kept apart here.

What was measured:
Type in all cases: cell-based, human
[1] = system: oral (buccal) mucosa cells (TR146); test: Cytoprotective effect against 5-FU induced damage (MTT)
Method: The cell viability was assessed by (MTT) assay and compared with positive control (Cells treated with Amifostine, EGCG and EGF and negative assay (untreated cells), wherein the control was the cells that underwent chemotherapy/radiotherapy.
(§1) The protective effect of the recombinant lectin on survival of TR146 cells against 5-FU induced damage was determined using following calculations:
(§2) The viability of cells was determined as: % Cell viability=(100−% Cytotoxicity); • where, the percentage cytotoxicity corresponding to each treatment was calculated as: % Cytotoxicity=[(R−X)/R]*100, wherein X=Absorbance of cells treated with 5-FU or radiation damage/TI+5-FU, R=Absorbance of Control cells (Untreated) and Percentage protection was calculated as:
(§3) {(Absorbance of TI+5-FU or radiation)−(Absorbance of 5-FU or radiation alone)/(Absorbance of Untreated)−(Absorbance of 5-FU alone)}*100

[2] = system: oral (buccal) mucosa cells (TR146); test: Restoration of mitochondrial membrane potential (JC-1) against 5-FU induced damage; conditions: for MMP: mitochondrial membrane potential, red/green JC-1 fluorescence ratio
Method: (§4) Oral buccal mucosal cells (TR146) were incubated overnight in 5% CO2 incubator at 37° C. for 24 h. […] After 24 h of treatment, cells were exposed to damage (5-FU 5 mM) for 1.25 h for chemotherapy induced inflammation and exposed to gamma radiation (3.5 kGy) using Cobalt 60 for radiation induced inflammation. After the exposure, the anti-apoptotic effect of SEQ ID NO 2 was determined by restoration of mitochondrial membrane depolarization by JC-1 staining and reduction in apoptotic cell populations (Annexin positive and subG0/G1 cells in cell cycle analysis).
(§5) After incubation, the supernatants were discarded and 100 μl of JC1-dye solution (prepared by diluting 1 mM DMSO stock into 10 μM in 1×PBS) was added to each well. The cells were then incubated with the dye in CO2 incubator at 37° C. for 15 min, after which the supernatant was removed, and the cells were washed twice with 1×PBS. 100 μl of 1×PBS was finally added to each well. Red fluorescence (excitation 550 nm, emission 600 nm) and green fluorescence (excitation 485 nm, emission 535 nm) were measured using Biotek Synergy HT plate reader. The mitochondrial membrane potential (Δψm) was calculated as the ratio of intensity of red fluorescence to intensity of green fluorescence.
(§6) The percentage increase/restoration in mitochondrial membrane potential (MMP) was calculated as: % Increase=[(R−X)/R]*100 • Where, X=Δψm corresponding to TI+5-FU treated cells or TI+radiation treated cells; R=Δψm corresponding to control cells (FU damaged or Radiation damaged alone)

[3] = system: NF-kB; test: Multiplex analysis, chemotherapy (5-FU), TR146 cell lysates
Method: Oral buccal mucosal cells (TR146) cells were incubated overnight at 37° C. in 5% CO2 incubator. […] The cells were then stimulated with 5-FU (10 mM) for another 24h for chemotherapy and with gamma radiation (3.5 kGy) using Cobalt 60 for radiotherapy. After 24 h, cell culture supernatants were collected from each well and stored at −20° C. till multiplex analysis. For NF-kB estimations, cell lysates were prepared. Levels of biomarkers were estimated using Magpix® multiplex machine. The cells treated with Amifostine (along with 5-FU or radiation) were considered as positive control (PC). Untreated cells (5-FU or radiation alone treated) were used as negative control (NC).
The percent modulation in each sample was determined as follows:
[{Concentration of biomarkers (pg/ml) in Control cells (5-FU or radiation alone treated)−Concentration of biomarkers (pg/ml) in SEQ ID NO: 2+5-FU or radiation treated cells)}/Concentration of biomarkers (pg/ml) in Control cells (5-FU or radiation alone treated)]*100

[4] = system: oral (buccal) mucosa cells (TR146); test: Restoration of mitochondrial membrane potential (JC-1) against radiation induced damage; conditions: for MMP: red/green JC-1 fluorescence ratio
Method: as §4, §5, §6

[5] = system: oral (buccal) mucosa cells (TR146)
Method: as §1, §2, §3

[6] = system: oral (buccal) mucosa cells (TR146); test: Annexin positive cell population against radiation damage; conditions: for % Apoptotic cells: Annexin positive
Method: as §4
To determine the reduction in apoptotic cell populations using annexin-v staining cells were gently harvested into pre-labeled sterile centrifuge tubes and centrifuged at 300×g for 5-7 min. Supernatant were discarded and the pellet was resuspended in 200 μl of fresh culture medium. 100 μl of cell suspension was transferred into pre-labeled sterile centrifuge tubes. 100 μl of Annexin-V reagent was added to each tube and incubated for 30 min at RT in dark. Cells stained for Annexin-V were then transferred into 96-well plates and acquired on flow cytometer (Guava technologies). Percentage of Annexin-V positive cells was calculated as follows:
={[% Annexin positive cells in 5-FU or radiation alone]−[% Annexin positive cells in (TI+5-FU) or (TI+radiation)]/% Annexin positive cells in 5-FU or radiation alone}*100

[7] = 0.01 μg/ml + Radiation (3.5 kGy)
[8] = 100 μg/ml + Radiation (3.5 kGy)
[9] = 0.1 μg/ml + Radiation (3.5 kGy)

B1: SEQ ID NO 2: recombinant lectin, variant of the S. rolfsii lectin amino acid sequence (reported as Rec-2 in WO 2010/095143) (protein)
chain: TYKITVRVYQTNPDAFFHPVEKTVWKYANGGTWTITDDQHVLTMGGSGTSGTLRFHADNGESFTATFGVHNYKRWCDIVTNLAADETGMVINQQYYSQKNREEARERQLSNYQVKNAKGRNFQIVYTEAEGNDLHANLIIG
- cell viability against 5-FU induced cell damage [1]: 56.8-78.4%
- % Protection ([1]; 1 μg/ml + 5-FU (5 mM)): 26%
- % Protection ([1]; 10 μg/ml + 5-FU (5 mM)): 50.6%
- % Protection ([1]; 25 μg/ml + 5-FU (5 mM)): 51%
- % Protection ([1]; 50 μg/ml + 5-FU (5 mM)): 63%
- % Protection ([1]; 100 μg/ml + 5-FU (5 mM)): 53%
- % Increase in MMP (with respect to control) ([2]; 0.01 μg/ml + 5FU): about 67%
- MMP ([2]; 0.01 μg/ml + 5FU): 14.1
- % Increase in MMP (with respect to control) ([2]; 0.1 μg/ml + 5FU): 67.5%
- MMP ([2]; 0.1 μg/ml + 5FU): 14.2
- % Increase in MMP (with respect to control) ([2]; 1 μg/ml + 5FU): 81.5%
- MMP ([2]; 1 μg/ml + 5FU): 15.4
- % Increase in MMP (with respect to control) ([2]; 10 μg/ml + 5FU): 79.6%
- MMP ([2]; 10 μg/ml + 5FU): 15.2
- % Increase in MMP (with respect to control) ([2]; 25 μg/ml + 5FU): 104.8%
- MMP ([2]; 25 μg/ml + 5FU): 17.3
- MMP ([2]; 50 μg/ml + 5FU): 17.8
- % Increase in MMP (with respect to control) ([2]; 100 μg/ml + 5FU): 106.2%
- MMP ([2]; 100 μg/ml + 5FU): 17.5
- Percentage Inhibition NF-kB ([3]; 0.1 μg/ml + 5-FU (10 mM)): 88.6%
- Percentage Inhibition NF-kB ([3]; 10 μg/ml + 5-FU (10 mM)): 98.4%
- Percentage Inhibition NF-kB ([3]; 25 μg/ml + 5-FU (10 mM)): 59.7%
- Percentage Inhibition NF-kB ([3]; 50 μg/ml + 5-FU (10 mM)): 53%
- Percentage Inhibition NF-kB ([3]; 100 μg/ml + 5-FU (10 mM)): 84.3%
- MMP [4, 7]: 5.76
- % Increase in MMP (with respect to control) ([4]; 1 μg/ml + Radiation (3.5 kGy)): 36.6%
- % Increase in MMP (with respect to control) ([4]; 10 μg/ml + Radiation (3.5 kGy)): 17.8%
- MMP ([4]; 10 μg/ml + Radiation (3.5 kGy)): 5.43
- MMP ([4]; 50 μg/ml + Radiation (3.5 kGy)): 6.29
- % Increase in MMP (with respect to control) [4, 8]: 7.9%
- MMP [4, 8]: 4.97
- % Protection [5, 7]: 2.5%
- maximum cytoprotection ([5]; 0.01 μg/ml-25 μg/ml, radiation): 54.1%
- % Protection [5, 9]: 14.1%
- % Protection ([5]; 1 μg/ml + Radiation (3.5 kGy)): 47.4%
- % Protection ([5]; 10 μg/ml + Radiation (3.5 kGy)): 54.1%
- % Protection ([5]; 25 μg/ml + Radiation (3.5 kGy)): 8.9%
- % Decrease in Apoptotic cells (with respect to radiation control) [6, 7]: −4.8%
- % Apoptotic cells [6, 7]: 14.3%
- % Decrease in Apoptotic cells (with respect to radiation control) [6, 9]: −7.3%
- % Apoptotic cells [6, 9]: 14.7%
- % Decrease in Apoptotic cells (with respect to radiation control) ([6]; 1 μg/ml + Radiation (3.5 kGy)): 56%
- % Apoptotic cells ([6]; 1 μg/ml + Radiation (3.5 kGy)): 6%
- % Decrease in Apoptotic cells (with respect to radiation control) ([6]; 10 μg/ml + Radiation (3.5 kGy)): 62.2%
- % Apoptotic cells ([6]; 10 μg/ml + Radiation (3.5 kGy)): 5.1%
- % Decrease in Apoptotic cells (with respect to radiation control) ([6]; 10 μg/ml + Radiation (3.5 kGy), listed as SEQ ID NO: 2): 62.6%
